# Reference: patent EP4636087A1, “ANTI-GPA33 ANTIBODY AND UTILIZATION THEREOF” (Kagoshima University, priority 2022, dated 2024)
# T1: human GPA33 expressed on CHO-K1 cells (hGPA33-expressing cells co-expressing GFP) (human, UniProt Q99795 22-319)
# T1 construct: whole, on cells; CHO-K1 transfected with an hGPA33 expression vector (ORIGENE) co-expressing GFP
# T1 sequence (looked up): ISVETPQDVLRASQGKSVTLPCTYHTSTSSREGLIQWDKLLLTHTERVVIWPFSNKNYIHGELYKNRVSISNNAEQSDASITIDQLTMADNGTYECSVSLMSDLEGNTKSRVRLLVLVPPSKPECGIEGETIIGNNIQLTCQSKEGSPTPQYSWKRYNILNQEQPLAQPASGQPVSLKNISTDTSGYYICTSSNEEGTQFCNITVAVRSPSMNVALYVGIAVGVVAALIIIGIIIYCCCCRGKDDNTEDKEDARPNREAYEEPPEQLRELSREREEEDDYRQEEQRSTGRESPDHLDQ
# T2: mouse GPA33 expressed on CHO-K1 cells (mGPA33-expressing cells) (mouse, UniProt Q9JKA5 22-319)
# T2 construct: whole, on cells
# T2 sequence (looked up): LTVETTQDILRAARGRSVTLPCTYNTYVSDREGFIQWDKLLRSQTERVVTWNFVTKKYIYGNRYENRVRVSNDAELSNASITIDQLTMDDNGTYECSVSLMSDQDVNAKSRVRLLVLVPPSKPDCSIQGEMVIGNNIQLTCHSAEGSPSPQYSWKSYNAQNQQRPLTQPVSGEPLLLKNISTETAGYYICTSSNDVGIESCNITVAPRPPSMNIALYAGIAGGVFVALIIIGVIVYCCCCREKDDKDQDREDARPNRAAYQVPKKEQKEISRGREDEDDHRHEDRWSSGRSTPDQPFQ
# T3: human GPA33 expressed on HEK293STF cells (EGFP-human GPA33 expression vector, ORIGENE RG210225) (human, UniProt Q99795 22-319)
# T3 sequence (looked up): T1 sequence (looked up)
# T4: human GPA33 recombinant protein (C-terminal His tag fusion protein, abcam) (human, UniProt Q99795 22-235, limits assumed)
# T4 construct: Bought recombinant protein (abcam); also called hGPA33
# T4 sequence (looked up): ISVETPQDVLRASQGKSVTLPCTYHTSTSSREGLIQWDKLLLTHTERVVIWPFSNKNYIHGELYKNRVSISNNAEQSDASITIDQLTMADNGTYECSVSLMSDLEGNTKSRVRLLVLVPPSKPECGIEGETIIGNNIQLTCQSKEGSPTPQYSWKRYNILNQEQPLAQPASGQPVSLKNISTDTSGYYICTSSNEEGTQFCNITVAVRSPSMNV
# T5: mouse GPA33 recombinant protein (C-terminal His tag fusion protein, abcam) (mouse, UniProt Q9JKA5 22-235, limits assumed)
# T5 construct: Bought recombinant protein (abcam); also called mGPA33
# T5 sequence (looked up): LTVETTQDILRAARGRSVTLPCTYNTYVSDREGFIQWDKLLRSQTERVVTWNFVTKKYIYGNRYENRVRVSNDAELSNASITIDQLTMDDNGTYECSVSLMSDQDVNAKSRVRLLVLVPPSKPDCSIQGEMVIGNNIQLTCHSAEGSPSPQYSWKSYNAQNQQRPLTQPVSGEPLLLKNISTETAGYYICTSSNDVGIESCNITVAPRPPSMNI
# B1: GPA33-2RC17 cloned scFv phage (scFv)
# scFv: QMQLVQSGGGLVKPGGSLRLSCAASGFTFSSYNMNWVRQAPGKGLEWVSSISSSGDFMYYADSVKGRFTISRDNAKNSLYLQMSSLRAEDTAVYYCAREGPGTPFDYWGQGTLVTVSSGGGGSGGGGSGSTGSAIQLTQSPSSLSASVGDRVTITCRASQSISSFLNWYQHKPGKAPKLLIYVASSLQSGVPSRFSGSGSGTDFTLTISSLQPEDFATYYCQQSHNTPYTFGQGTKLEIK
# notes: also called G17
# B2: 2RC28-Cys anti-GPA33 scFv (Cys-containing sequence, His tag and Myc tag at the C-terminal side), expressed in Escherichia coli (scFv)
# scFv: EVQLVESGGGLVKPGGSLRLSCAASGFTFSSYSMNWVRQAPGKGLEWVSSISRDSTYIYYADSVKGRFTISRDNAKNSLYLQMNSLRAEDTAVYYCAREGVAGAFDIWGQGTMVTVSSGGGGSGGGGSGSTGSAIQLTQSPSSLSASVGDRVTITCRASQSISSYLNWYQQKPGKAPKLLIYIASSLQSGVPSRFSGSGSGTDFTLTISSLQPEDFATYYCQQSYNTWTFGQGTKVEIKAACTSAHHHHHHGAAEQKLISEEDLNGAA
# notes: Periplasmic expression in E. coli HB2151, purified on a His tag column; also called 2RC28 scFv; anti-GPA33 single chain Fv-His
# B3: GPA33-2RC28 cloned scFv phage (scFv)
# scFv: EVQLVESGGGLVKPGGSLRLSCAASGFTFSSYSMNWVRQAPGKGLEWVSSISRDSTYIYYADSVKGRFTISRDNAKNSLYLQMNSLRAEDTAVYYCAREGVAGAFDIWGQGTMVTVSSGGGGSGGGGSGSTGSAIQLTQSPSSLSASVGDRVTITCRASQSISSYLNWYQQKPGKAPKLLIYIASSLQSGVPSRFSGSGSGTDFTLTISSLQPEDFATYYCQQSYNTWTFGQGTKVEIK
# B4: G17-R1CRD-GS3-Fcm (Fc fusion)
# chain: QMQLVQSGGGLVKPGGSLRLSCAASGFTFSSYNMNWVRQAPGKGLEWVSSISSSGDFMYYADSVKGRFTISRDNAKNSLYLQMSSLRAEDTAVYYCAREGPGTPFDYWGQGTLVTVSSGGGGSGGGGSGSTGSAIQLTQSPSSLSASVGDRVTITCRASQSISSFLNWYQHKPGKAPKLLIYVASSLQSGVPSRFSGSGSGTDFTLTISSLQPEDFATYYCQQSHNTPYTFGQGTKLEIKGGSGGSISAEGSQACAKGCELCSEVNGCLKCSPKLFILLERNDIRQVGVCLPSCPPGYFDARNPDMNKCIKCKIEHCEACFSHNFCTKCKEGLYLHKGRCYPACPEGSSAANGTMECSSGGGGSGGGGSGGGGSEPKSADKTHTCPPCPAPEAEGAPSVFLFPPKPKDTLMISRTPEVTCVVVDVSHEDPEVKFNWYVDGVEVHNAKTKPREEQYNSTYRVVSVLTVLHQDWLNGKEYKCAVSNKALPASIEKTISKAKGQPREPQVYTLPPSREEMTKNQVSLTCLVKGFYPSDIAVEWESNGQPENNYKTTPPVLDSDGSFFLYSKLTVDKSRWQQGNVFSCSVMHEALHNHYTQKSLSLSPGK
# B5: G17-R1CRD-His (other)
# chain: QMQLVQSGGGLVKPGGSLRLSCAASGFTFSSYNMNWVRQAPGKGLEWVSSISSSGDFMYYADSVKGRFTISRDNAKNSLYLQMSSLRAEDTAVYYCAREGPGTPFDYWGQGTLVTVSSGGGGSGGGGSGSTGSAIQLTQSPSSLSASVGDRVTITCRASQSISSFLNWYQHKPGKAPKLLIYVASSLQSGVPSRFSGSGSGTDFTLTISSLQPEDFATYYCQQSHNTPYTFGQGTKLEIKGGSGGSISAEGSQACAKGCELCSEVNGCLKCSPKLFILLERNDIRQVGVCLPSCPPGYFDARNPDMNKCIKCKIEHCEACFSHNFCTKCKEGLYLHKGRCYPACPEGSSAANGTMECSSPAHHHHHHGA
# B6: R1CRD-G17-His (other)
# chain: ISAEGSQACAKGCELCSEVNGCLKCSPKLFILLERNDIRQVGVCLPSCPPGYFDARNPDMNKCIKCKIEHCEACFSHNFCTKCKEGLYLHKGRCYPACPEGSSAANGTMECSSGGGGSGGGGSGGGGSQMQLVQSGGGLVKPGGSLRLSCAASGFTFSSYNMNWVRQAPGKGLEWVSSISSSGDFMYYADSVKGRFTISRDNAKNSLYLQMSSLRAEDTAVYYCAREGPGTPFDYWGQGTLVTVSSGGGGSGGGGSGSTGSAIQLTQSPSSLSASVGDRVTITCRASQSISSFLNWYQHKPGKAPKLLIYVASSLQSGVPSRFSGSGSGTDFTLTISSLQPEDFATYYCQQSHNTPYTFGQGTKLEIKHHHHHHGA
# B7: GPA2RC28-Fc (anti-GPA33 single-chain Fv-Fc, scFv linked to human IgG1-Fc) (Fc fusion)
# chain: EVQLVESGGGLVKPGGSLRLSCAASGFTFSSYSMNWVRQAPGKGLEWVSSISRDSTYIYYADSVKGRFTISRDNAKNSLYLQMNSLRAEDTAVYYCAREGVAGAFDIWGQGTMVTVSSGGGGSGGGGSGSTGSAIQLTQSPSSLSASVGDRVTITCRASQSISSYLNWYQQKPGKAPKLLIYIASSLQSGVPSRFSGSGSGTDFTLTISSLQPEDFATYYCQQSYNTWTFGQGTKVEIKPKSSDKTHTCPPCPAPEAEGAPSVFLFPPKPKDTLMISRTPEVTCVVVDVSHEDPEVKFNWYVDGVEVHNAKTKPREEQYNSTYRVVSVLTVLHQDWLNGKEYKCAVSNKALPASIEKTISKAKGQPREPQVYTLPPSREEMTKNQVSLTCLVKGFYPSDIAVEWESNGQPENNYKTTPPVLDSDGSFFLYSKLTVDKSRWQQGNVFSCSVMHEALHNHYTQKSLSLSPGK
# notes: also called 2RC28 scFv-Fc; 2RC28 single-chain Fv-Fc
# B8: GPA2RC17-Fc (anti-GPA33 single-chain Fv-Fc, scFv linked to human IgG1-Fc) (Fc fusion)
# chain: QMQLVQSGGGLVKPGGSLRLSCAASGFTFSSYNMNWVRQAPGKGLEWVSSISSSGDFMYYADSVKGRFTISRDNAKNSLYLQMSSLRAEDTAVYYCAREGPGTPFDYWGQGTLVTVSSGGGGSGGGGSGSTGSAIQLTQSPSSLSASVGDRVTITCRASQSISSFLNWYQHKPGKAPKLLIYVASSLQSGVPSRFSGSGSGTDFTLTISSLQPEDFATYYCQQSHNTPYTFGQGTKLEIKPKSSDKTHTCPPCPAPEAEGAPSVFLFPPKPKDTLMISRTPEVTCVVVDVSHEDPEVKFNWYVDGVEVHNAKTKPREEQYNSTYRVVSVLTVLHQDWLNGKEYKCAVSNKALPASIEKTISKAKGQPREPQVYTLPPSREEMTKNQVSLTCLVKGFYPSDIAVEWESNGQPENNYKTTPPVLDSDGSFFLYSKLTVDKSRWQQGNVFSCSVMHEALHNHYTQKSLSLSPGK
# notes: also called 2RC17 scFv-Fc; 2RC17-scFv-Fc
# B9: G17-R4CRD-His (other)
# chain: QMQLVQSGGGLVKPGGSLRLSCAASGFTFSSYNMNWVRQAPGKGLEWVSSISSSGDFMYYADSVKGRFTISRDNAKNSLYLQMSSLRAEDTAVYYCAREGPGTPFDYWGQGTLVTVSSGGGGSGGGGSGSTGSAIQLTQSPSSLSASVGDRVTITCRASQSISSFLNWYQHKPGKAPKLLIYVASSLQSGVPSRFSGSGSGTDFTLTISSLQPEDFATYYCQQSHNTPYTFGQGTKLEIKGGSGGSGGNCTGCIICSEENGCSTCQQRLFLFIRREGIRQYGKCLHDCPPGYFGIRGQEVNRCKKCGATCESCFSQDFCIRCKRQFYLYKGKCLPTCPPGTLAHQNTRECQGHHHHHHGA
# B10: G17-R2CRD-His (other)
# chain: QMQLVQSGGGLVKPGGSLRLSCAASGFTFSSYNMNWVRQAPGKGLEWVSSISSSGDFMYYADSVKGRFTISRDNAKNSLYLQMSSLRAEDTAVYYCAREGPGTPFDYWGQGTLVTVSSGGGGSGGGGSGSTGSAIQLTQSPSSLSASVGDRVTITCRASQSISSFLNWYQHKPGKAPKLLIYVASSLQSGVPSRFSGSGSGTDFTLTISSLQPEDFATYYCQQSHNTPYTFGQGTKLEIKGGGGSGGGGSGGGGSNPICKGCLSCSKDNGCSRCQQKLFFFLRREGMRQYGECLHSCPSGYYGHRAPDMNRCARCRIENCDSCFSKDFCTKCKVGFYLHRGRCFDECPDGFAPLEETMECVEGHHHHHHGA
# What was measured:
# [1] = molecular target: T1, human GPA33 expressed on CHO-K1 cells …; assay: FACS, cloned phage on GPA33-expressing CHO-K1 cells
# [2] = molecular target: T2, mouse GPA33 expressed on CHO-K1 cells …; assay: as above
# [3] = molecular target: T1, human GPA33 expressed on CHO-K1 cells …; assay: FACS, 0.1 µg scFv on GPA33-expressing CHO-K1 cells, anti-His-biotin and SA-PE detection
# [4] = molecular target: T2, mouse GPA33 expressed on CHO-K1 cells …; assay: as above
# [5] = molecular target: T3, human GPA33 expressed on HEK293STF …; assay: cell-based or functional assay
# [6] = molecular target: T4, human GPA33 recombinant protein …; assay: SPR, Biacore T200, 25°C, GPA33-His amine-coupled on CM5, scFv-Fc as analyte, 1:1 binding model
# [7] = molecular target: T5, mouse GPA33 recombinant protein …; assay: as above
Binder,"EC50(GPA33) (nM), Wnt/β-catenin reporter in 293STF cells expressing GPA33 [5] [nM]",EC50(MOG)/ EC50(GPA33) [5],further results
B1,,,binding result [1]: binds; binding result [2]: binds
B2,,,binding result [3]: binds; binding result [4]: binds
B3,,,binding result [1]: binds; binding result [2]: binds
B4,0.054,> 556,
B5,0.031,968,
B6,0.027,307,
B7,,,Kd [6]: 5.7 nM; Kd [7]: 6.9 nM
B8,,,Kd [6]: 1.4 nM; Kd [7]: 3.8 nM
B9,0.008,348,
B10,0.021,15.2,
